Test results: patent US20230227514A1, “BETA-ARRESTIN COMPOSITIONS AND ASSOCIATED METHODS” (Duke University, priority 2020, published 2023)

Tests used:
Format in all cases: cell-based
D2R = target: T1, D2R (Homo sapiens, UniProt P14416); test: Confocal trafficking and colocalization with D2R; settings: HEK-293 cells stably expressing D2R
T1 construct: HA (N); expressed in transfected cells
Protocol: (§1) Immunostaining and confocal microscopy. […] Twenty-four hours post-transfection, cells were serum-starved for 4 h, and either left untreated or treated with respective agonists for the indicated times in the Figure descriptions. After stimulation, cells were fixed with 5% formaldehyde diluted in phosphate-buffered saline (PBS), permeabilized with 0.1% Triton in PBS containing 2% bovine serum albumin for 20 min and incubated at room temperature with appropriate primary antibody. The next day, cells were washed three times with PBS and incubated with Alexa594 conjugated secondary antibody for 1 h, followed by repeated washes using PBS. Confocal images were acquired using Zeiss LSM510 laser-scanning microscope using multitrack sequential with excitation (488 and 568 nm) and emission (BP 505-550 nm and LP 585 nm) filter sets. Images (1024×1024 pixels) were collected using either a 63× or 100× oil immersion lens. Images were processed for Figure presentation using Adobe Photoshop software, and any increase or decrease of brightness/contrast was applied to the entire image. The nuclear rim localization of YFP-βarrestin2-SUMO1 is readily visualized in cells with low to moderate expression of YFP-protein. In cells with high expression, this localization is present, and can be discerned by enlarging sections of the nuclear rim. […]

RanGAP1 [1] = test: Western blotting of RanGAP1 levels on βarrestin2 overexpression; settings: RanGAP1/GAPDH ratio, Western blot
Description: HEK-293T cells stably transfected with β2AR were transfected with vector or YFP-βarrestin2. […] The unmodified RanGAP1 band (70 kDa) was divided by cognate GAPDH and plotted as a ratio. The bar graph (bottom panel) summarizes values from three independent experiments. *p=0.006, unpaired t test.
In these experiments, SUMO1 by itself is not localized at the nuclear membrane in HEK-293 cells; only βarrestin2-SUMO1 is localized at the nuclear membrane. […] It is well established that RanGAP1 is expressed in cells predominantly in the SUMOylated state. This is illustrated in immunoblots (FIGS. 9-11), in which the RanGAP1 antibody detects two bands, SUMO-RanGAP1 (approximately 90 kDa) and RanGAP1 (approximately 70 kDa).

[2] = target: T2, D1 dopamine receptor (D1R) (Homo sapiens, UniProt P21728); test: Confocal trafficking and colocalization with D1R; settings: HEK-293 cells with stable D1R expression; dopamine 15 minutes
T2 construct: expressed in transfected cells
Protocol: as §1

RanGAP1 [3] = target: T3, RanGAP1 (Homo sapiens, UniProt P46060); test: Confocal colocalization with endogenous RanGAP1 at the nuclear envelope; settings: HEK-293 cells with or without β2AR agonist stimulation
T3 construct: endogenous in cells; host or cells: HEK-293T / HEK-293
Protocol: as §1

β2AR [4] = target: T4, β2AR (Homo sapiens, UniProt P07550); test: Confocal trafficking and colocalization with β2AR
T4 construct: Flag (N); expressed in transfected cells
Protocol: Immunostaining and confocal microscopy. […] Twenty-four hours post-transfection, cells were serum-starved for 4 h, and either left untreated or treated with respective agonists for the indicated times in the Figure descriptions. After stimulation, cells were fixed with 5% formaldehyde diluted in phosphate-buffered saline (PBS), permeabilized with 0.1% Triton in PBS containing 2% bovine serum albumin for 20 min and incubated at room temperature with appropriate primary antibody. The next day, cells were washed three times with PBS and incubated with Alexa594 conjugated secondary antibody for 1 h, followed by repeated washes using PBS. Confocal images were acquired using Zeiss LSM510 laser-scanning microscope using multitrack sequential with excitation (488 and 568 nm) and emission (BP 505-550 nm and LP 585 nm) filter sets. Images (1024×1024 pixels) were collected using either a 63× or 100× oil immersion lens. Images were processed for Figure presentation using Adobe Photoshop software, and any increase or decrease of brightness/contrast was applied to the entire image. The nuclear rim localization of YFP-βarrestin2-SUMO1 is readily visualized in cells with low to moderate expression of YFP-protein. In cells with high expression, this localization is present, and can be discerned by enlarging sections of the nuclear rim.
For βarrestin2-SUMO1, plasma membrane translocation was detected upon β2AR agonist activation, and, intriguingly, βarrestin2-SUMO1 was detected in endocytic vesicles. […] Confocal images were taken of cells stably expressing the β2AR and transiently expressing YFP-SUMO1 (data not shown). In both quiescent and agonist-treated cells, the SUMO1 protein remained in the nucleus. […] See Shenoy et al. 2007, supra; Shenoy and Lefkowitz. 2005. J Biol Chem 280:15315-15324; and Shenoy and Lefkowitz. 2003. J Biol Chem 278:14498-14506. Therefore, the endosomal trafficking was compared for βarrestin2-ubiquitin (βarrestin2-Ub) fusion protein and internalized β2ARs. […]

β2AR [5] = target: T4, β2AR; test: BRET assay of βarrestin1 construct recruitment to β2AR; settings: with or without isoproterenol stimulation
Description: The bar graph summarizes the BRET ratio corresponding to the recruitment of βarrestin1 or βarrestin1-SUMO1 fusion protein to the β2AR with or without isoproterenol (β2AR agonist) stimulation, as described in Example 1 herein.
(§2) BRET assays. […] Titration assays were first completed, which allowed determination of the specificity of association among different interaction partners. See Nagi and Shenoy. 2019, supra; Gales et al. 2005. Nature methods 2:177-184; Nagi et al. 2015. Cellular and molecular life sciences: CMLS 72:3543-3557; Audet and Pineyro. 2011. Methods in molecular biology 756:149-163; and Rebois et al. 2006. Journal of cell science 119:2807-2818. […] BRET readings were acquired using Synergy Neo2 plate reader and obtained 5 min after manual addition of Rluc substrate, coelenterazine h (Promega) to a final concentration of 5 μM.
(§3) The BRET signal generated was determined by calculating the ratio of light emitted by YFP (520-550 nm) over the light emitted by Rluc (440-480 nm). These values were then corrected by subtracting the background signal (detected when the Rluc-tagged construct was expressed without acceptor) from the BRET signal detected in cells co-expressing both donor and acceptor constructs. Agonist-induced BRET values were calculated by subtracting net BRET values of non-stimulated conditions from net BRET values corresponding to the stimulated conditions.

glucagon receptor (GCGR) = target: T5, glucagon receptor (GCGR) (Homo sapiens, UniProt P47871); test: BRET assay of βarrestin1 construct recruitment to GCGR; settings: GCGR activation with glucagon
T5 construct: expressed in transfected cells; host or cells: HEK-293T
Description: The bar graph summarizes the BRET ratio corresponding to the recruitment of βarrestin1 or βarrestin1-SUMO1 fusion protein to the GCGR with or without glucagon (GCGR agonist) stimulation, as described in Example 1 herein.
as §2, §3

SUMO1 = target: T6, SUMO1 (Homo sapiens, UniProt P63165); test: SUMOylation of FLAG-βarrestin2 constructs co-expressed with His6-SUMO1 (FLAG IP, immunoblot); settings: overexpressed in HEK-293 cells along with His-SUMO1
T6 construct: His6 (N); expressed in transfected cells; host or cells: HEK-293 (transient)
Description: HEK-293 cells were transfected with vector, FLAG-βarrestin2 (WT) or FLAG-βarrestin2-K296R along with His6-SUMO1.
SUMOylation is targeted to a canonical protein sequence (Ψ-K-X-D/E), where Ψ is an aliphatic amino acid, K is the target site for the covalent modification by SUMO, X is any amino acid and is followed by an acidic residue. See Sampson et al. 2001. J Biol Chem 276:21664-21669. […] See Wyatt et al. 2011 and Xiao et al. 2015, both supra.

T5 sequence (P47871 26-477, species assumed): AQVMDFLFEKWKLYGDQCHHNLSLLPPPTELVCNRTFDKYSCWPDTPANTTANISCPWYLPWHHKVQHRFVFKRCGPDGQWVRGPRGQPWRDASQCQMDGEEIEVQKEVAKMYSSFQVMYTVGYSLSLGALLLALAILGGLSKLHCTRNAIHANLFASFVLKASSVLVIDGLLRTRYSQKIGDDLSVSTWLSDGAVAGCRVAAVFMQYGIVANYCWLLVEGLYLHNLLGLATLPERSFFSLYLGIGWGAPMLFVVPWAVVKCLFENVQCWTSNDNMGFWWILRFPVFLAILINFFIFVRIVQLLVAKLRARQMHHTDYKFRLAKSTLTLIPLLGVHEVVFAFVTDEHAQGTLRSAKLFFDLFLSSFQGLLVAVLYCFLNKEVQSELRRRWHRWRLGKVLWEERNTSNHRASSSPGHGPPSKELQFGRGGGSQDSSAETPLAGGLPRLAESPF
T6 sequence (P63165 1-97 limits assumed): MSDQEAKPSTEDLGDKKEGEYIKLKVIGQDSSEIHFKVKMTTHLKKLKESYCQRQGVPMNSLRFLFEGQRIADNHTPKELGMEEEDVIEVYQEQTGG
T3 sequence (P46060 2-587 limits assumed): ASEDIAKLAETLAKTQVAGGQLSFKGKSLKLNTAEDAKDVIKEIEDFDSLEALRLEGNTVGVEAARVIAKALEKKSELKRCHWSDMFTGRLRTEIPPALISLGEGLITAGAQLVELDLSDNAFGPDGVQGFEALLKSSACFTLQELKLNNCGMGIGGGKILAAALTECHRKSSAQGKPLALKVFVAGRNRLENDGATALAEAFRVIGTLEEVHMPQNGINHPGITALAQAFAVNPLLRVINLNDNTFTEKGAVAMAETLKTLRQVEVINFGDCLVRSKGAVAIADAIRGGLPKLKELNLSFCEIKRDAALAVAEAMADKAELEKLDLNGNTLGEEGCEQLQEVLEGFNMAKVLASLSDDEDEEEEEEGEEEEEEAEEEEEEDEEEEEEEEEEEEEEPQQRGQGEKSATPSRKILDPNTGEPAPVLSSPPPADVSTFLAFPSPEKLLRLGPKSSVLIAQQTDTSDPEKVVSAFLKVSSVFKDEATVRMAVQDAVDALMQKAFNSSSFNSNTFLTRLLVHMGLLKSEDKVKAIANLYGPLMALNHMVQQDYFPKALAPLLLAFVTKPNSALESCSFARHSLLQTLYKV
T3 sequence (P63165 2-97 partner limits assumed): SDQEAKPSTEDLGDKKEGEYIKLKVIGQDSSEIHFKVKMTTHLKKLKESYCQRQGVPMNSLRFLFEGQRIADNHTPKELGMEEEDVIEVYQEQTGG
T1 sequence (P14416 whole entry): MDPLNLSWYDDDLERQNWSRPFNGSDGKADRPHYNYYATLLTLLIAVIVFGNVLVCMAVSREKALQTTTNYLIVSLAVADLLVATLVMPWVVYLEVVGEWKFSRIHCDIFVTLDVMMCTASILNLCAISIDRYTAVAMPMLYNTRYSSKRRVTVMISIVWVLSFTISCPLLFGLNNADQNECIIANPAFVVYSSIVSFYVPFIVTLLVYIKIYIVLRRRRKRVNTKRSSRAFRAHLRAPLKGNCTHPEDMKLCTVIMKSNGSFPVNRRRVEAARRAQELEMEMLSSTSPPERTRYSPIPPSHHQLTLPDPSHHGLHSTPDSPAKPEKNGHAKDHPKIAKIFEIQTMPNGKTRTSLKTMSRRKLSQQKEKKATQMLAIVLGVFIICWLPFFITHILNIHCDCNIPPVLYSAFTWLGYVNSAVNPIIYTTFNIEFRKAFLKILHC
T2 sequence (P21728 whole entry): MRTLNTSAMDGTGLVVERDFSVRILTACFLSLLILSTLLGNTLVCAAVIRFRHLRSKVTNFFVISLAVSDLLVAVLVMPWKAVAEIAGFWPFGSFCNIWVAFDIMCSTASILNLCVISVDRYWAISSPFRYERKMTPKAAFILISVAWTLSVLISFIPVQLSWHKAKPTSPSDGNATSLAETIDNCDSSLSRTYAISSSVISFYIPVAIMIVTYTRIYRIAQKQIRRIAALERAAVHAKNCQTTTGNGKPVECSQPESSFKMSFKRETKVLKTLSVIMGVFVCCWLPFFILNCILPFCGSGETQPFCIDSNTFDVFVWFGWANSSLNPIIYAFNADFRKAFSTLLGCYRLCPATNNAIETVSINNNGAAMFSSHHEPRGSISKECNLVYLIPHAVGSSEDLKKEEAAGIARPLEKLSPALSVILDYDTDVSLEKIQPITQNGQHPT

With “βarrestin2: wild-type rat βarrestin2 (SEQ ID NO:3), tagged, used as comparator [reference compound]” the “stability of association with activated D2R (confocal)” value (D2R) was “not stable”, the “increase of unmodified RanGAP1 band (approximately 70 kDa) versus vector transfected cells” value (RanGAP1 [1]) was 50% and the “association with D1R after dopamine activation (confocal)” value [2] was “weak association”. The “colocalization with endogenous RanGAP1 at the nuclear envelope” value (RanGAP1 [3]) was “Minimal colocalization” and the “colocalization / complexes with β2AR after agonist activation (confocal)” value (β2AR [4]; HEK-293 cells with stable β2AR expression, agonist up to 20 minutes) was “no colocalization was detected”.

In the case of “βarrestin1: wild-type rat βarrestin1 (SEQ ID NO:4), used as comparator [reference compound]”, the “association with β2AR by BRET ratio” value (β2AR [5]) is reported as “weak association” and the “association with GCGR by BRET” value (glucagon receptor (GCGR)) is reported as “weak association”.

“βarrestin1-SUMO1: rat βarrestin1 polypeptide fused to human SUMO1 (SEQ ID NO:2)” was tested, and the “colocalization of βarrestin1 constructs with β2AR (confocal)” value (β2AR [4]; HEK-293 cells, isoproterenol) was “strong colocalization”, the “association with β2AR by BRET ratio” value (β2AR [5]) was “significantly more binding” and the “association with GCGR by BRET” value (glucagon receptor (GCGR)) was “significantly more binding”.

B1: βarrestin2-K296R: rat βarrestin2 with lysine-296 of the canonical SUMOylation site mutated to arginine (protein)
chain: MGEKPGTRVFKKSSPNCKLTVYLGKRDFVDHLDKVDPVDGVVLVDPDYLKDRKVFVTLTCAFRYGREDLDVLGLSFRKDLFIATYQAFPPMPNPPRPPTRLQDRLLKKLGQHAHPFFFTIPQNLPCSVTLQPGPEDTGKACGVDFEIRAFCAKSIEEKSHKRNSVRLIIRKVQFAPETPGPQPSAETTRHFLMSDRRSLHLEASLDKELYYHGEPLNVNVHVTNNSAKTVKKIRVSVRQYADICLFSTAQYKCPVAQLEQDDQVSPSSTFCKVYTITPLLSDNREKRGLALDGQLRHEDTNLASSTIVKEGANKEVLGILVSYRVKVKLVVSRGGDVSVELPFVLMHPKPHDHITLPRPQSAPREIDIPVDTNLIEFDTNYATDDDIVFEDFARLRLKGMKDDDCDDQFC
modifications: left off: large carriers
For B1, the “SUMOylation compared with rat βarrestin2 (WT)” value (SUMO1) was “significantly decreased but not eliminated”.
